Source: PMC7988105, “Canonical versus non-canonical transsynaptic signaling of neuroligin 3 tunes development of sociality in mice” (Nature Communications, 2021)

B1: mouse NLGN3 ECD (residues 35–684) with C-terminal His6 tag (domain or fragment, UniProt Q8BYM5 35-684, looked up)
chain: QAPAPTVNTHFGKLRGARVPLPSEILGPVDQYLGVPYAAPPIGEKRFLPPEPPPSWSGIRNATHFPPVCPQNIHTAVPEVMLPVWFTANLDIVATYIQEPNEDCLYLNVYVPTEDGSGAKKQGEDLADNDGDEDEDIRDSGAKPVMVYIHGGSYMEGTGNMIDGSVLASYGNVIVITLNYRVGVLGFLSTGDQAAKGNYGLLDQIQALRWVSENIAFFGGDPRRITVFGSGIGASCVSLLTLSHHSEGLFQRAIIQSGSALSSWAVNYQPVKYTSLLADKVGCNVLDTVDMVDCLRQKSAKELVEQDIQPARYHVAFGPVIDGDVIPDDPEILMEQGEFLNYDIMLGVNQGEGLKFVEGVVDPEDGVSGTDFDYSVSNFVDNLYGYPEGKDTLRETIKFMYTDWADRDNPETRRKTLVALFTDHQWVEPSVVTADLHARYGSPTYFYAFYHHCQSLMKPAWSDAAHGDEVPYVFGVPMVGPTDLFPCNFSKNDVMLSAVVMTYWTNFAKTGDPNKPVPQDTKFIHTKANRFEEVAWSKYNPRDQLYLHIGLKPRVRDHYRATKVAFWKHLVPHLYNLHDMFHYTSTTTKVPPPDTTHSSHITRRPNGKTWSTKRPAISPAYSNENAPGSWNGDQDAGPLLVENPRDYSTE
notes: mouse neuroligin 3, NLGN3A isoform, extracellular domain; Dimer by SEC-MALS and in both crystals; also called apo-NLGN3 ECD; wild-type NLGN3; not shown: His6, C-terminal, kept

Tests used:
[1] = target: the molecule itself; assay: SEC-MALS; NLGN3 ECD wild-type at 1.5 g/L or R/C mutant at 1.1 g/L on ENrich SEC 650, 20 mM Tris-HCl pH 7.5, 150 mM NaCl
[2] = target: T1, NLGN3 ECD MF/IS mutant (M614I F615S) with His6 tag (mouse, UniProt Q8BYM5 35-684, M614I | F615S); assay: ITC; NLGN3 ECD (20 µM) in the cell, NRXN1β (200 µM) injected; 20 mM Tris-HCl pH 8.0, 150 mM NaCl, 1 mM CaCl2, 25 °C; one-site model; settings: both partners purified
T1 construct: mouse neuroligin 3, NLGN3A isoform, extracellular domain (gene for residues 1–684 expressed and secreted), mutated; also called NLGN3-MF/IS; not shown: His6, C-terminal, kept

[3] = target: B1; assay: as above; settings: both partners purified

Kd [2]	Kd [3]	Binder	stoichiometry N [1]
–	–	B1	2
2300 nM	1800 nM	NRXN1β (lacking SS4) used for ITC (domain or fragment) not shown	–
